This note sets out measurements from patent US20240350583A1, “COMPOSITION FOR PREVENTING OR TREATING FIBROTIC DISEASES, COMPRISING HAPLN1” (Chung Ang University Industry Academic Cooperation …, priority 2021, published 2024).

Experiment [1] deals with ischemia/reperfusion-induced kidney fibrosis. The experiment is described as follows: Ischemia/reperfusion kidney fibrosis mouse model. Format: in vivo. The procedure:
According to the experimental scheme of FIG. 14A, 8-week-old C57BL/6 male mice were subjected to pentobarbital (50 mg/kg BW, i.p.) anesthesia, a flank incision was made to induce ischemia, the kidneys were exposed, and blood flow was blocked for 25 minutes by clamping the bilateral renal pedicles using a non-traumatic microaneurysm clamp (Roboz Surgical Instruments). The clamps were then removed and the incisions were sutured. The sham-operation was performed in the same manner as the ischemia/reperfusion experiment, except for the blockage of blood flow.
One day after ischemia, blood urea nitrogen (BUN) was measured, and only mice whose value rose above about 98 mg/dL (specified as 100 mg/dl from now on) were grouped into experimental groups and the experiment was conducted. The experimental groups were administered various drugs, including the composition of the present disclosure, daily from day 7 after surgery, and the kidneys were harvested on day 14 for histologic and biochemical analysis.
In addition, blood was taken on day 7 after drug administration to measure BUN concentration, and 14 days later, blood and urine were taken to measure creatinine concentration in blood and urine and BUN concentration in blood. Additionally, creatinine clearance was calculated.
Biochemical analysis (evaluation of fibrosis index expression): To confirm the expression of αSMA in kidney tissue, western blot was performed using antibodies against αSMA.
To confirm the expression of αSMA in sham-operation (Sham) and ischemia/reperfusion (IR) mouse kidney tissue, samples from each experimental group were loaded onto a single gel, western blot was performed, and the density of each band was measured. Ponceau and GADPH were utilized as equal loading markers (FIG. 14B). Where SV; sham-vehicle, SB; sham-rhHAPLN1-dissolving solution, IRV; IR-vehicle, IRP; IR-pirfenidone, IRA; IR-composition of the present disclosure (rhHAPLN1) A, IRB; IR-composition of the present disclosure (rhHAPLN1) B, IRC; IR-composition of the present disclosure (rhHAPLN1) C, respectively, and more details are shown in Table 1 and Table 2 above. More specifically, the Sham-vehicle is a group in which only the rhHAPLNB1-free buffer solution was diluted in PBS and IP-injected into the Sham control group. Sham-rhHAPLN1-dissolving solution is a group in which rhHAPLN1 concentration B (0.02 mg/kg) was diluted and IP injected to confirm the effect of rhHAPLN1 under normal conditions. […] IR-pirfenidone is a group in which 300 mg/kg of pirfenidone was administered orally after induction of I/R fibrosis.
In addition, the fold change in expression level for IRV in relation to αSMA expression was graphed (FIG. 14C).
As part of the histological analysis of fibrosis, paraffin-fixed kidneys were cut into 3 μm sections, and Sirus red and PAS staining were performed on these slide sections to assess collagen expression and fibrotic lesions in the tissue, respectively (FIG. 14D). Where SV; sham-vehicle, SB; sham-rhHAPLN1-dissolving solution, IRV; IR-vehicle, IRP; IR-pirfenidone, IRA; IR-composition of the present disclosure (rhHAPLN1) concentration 0.1 mg/kg, IRB; IR- the composition of the present disclosure (rhHAPLN1) at a concentration of 0.02 mg/kg, IRC; IR-the composition of the present disclosure (rhHAPLN1) at a concentration of 0.004 mg/kg, respectively.
In addition, in order to quantify the expression of collagen in the above-mentioned tissue, two of the outer medulla areas of the kidney were randomly imaged in the tissue staining photograph of FIG. 14D, and collagen-positive area was marked. Here, the red color is a sirus red positive signal (FIG. 14E).
As an experiment to analyze kidney function, blood was taken through a glass capillary tube with heparin added through the retroorbital vein plexus, and urine was obtained using a metabolic cage. Blood urea nitrogen and creatinine (plasma creatinine, PCr) concentrations were measured using Vitros250 (Johnson & Johnson). […]

The test system of experiment [2] is human kidney renal tubule cell (Human Kidney 2, HK-2). The experiment is described as follows: Cell morphological changes of TGFβ1-treated HK-2 cells. The format is cell-based. To be noted: TGFβ1 10 ng/ml 24 h. The procedure:
(1) Human kidney renal tubule cells (HK-2) were seeded (3.0×10^5 cells/well) in a 6-well plate according to the experimental scheme of FIG. 8A and incubated in RPMI 1640 Medium (11875-093, Gibco) including 10% FBS for 24 hours in an incubator at 37° C. 5% CO2.
(2) Afterwards, the plates were washed several times with PBS, and each well of the plate was treated with TGFβ1 (10 ng/ml) and incubated for 24 hours.
(3) Subsequently, the plates were then treated with the composition of the present disclosure (rhHAPLN1 protein content of 0, 5, 10, 20, 50 and 100 ng/ml) and pirfenidone 0.2 mg/mL (200 μg/mL), respectively, and incubated for 24 hours.
(4) The wells containing each sample were then washed twice with 1×PBS, treated with 4% paraformaldehyde and fixed for 1 hour.
(5) After washing twice with 1×PBS, the shape or morphology of the cells was observed under a microscope.

Experiment [3] concerns renal proximal tubule epithelial cell (RPTEC). The experiment is described as follows: Age-induced fibrosis of RPTEC (passage 11), αSMA immunofluorescence. Particulars: aged cells (11th passage culture), 72 hours. The format is cell-based. As to the method:
(1) Renal proximal tubule epithelial cell ([…]) in 12-well plates and cultured in complete renal epithelial cell medium (ATCC PCS-400-030+ATCC PCS-400-040) in an incubator at 37° C. 5% CO2 for 24 hours.
(2) Subsequently, the plates were then treated with the composition of the present disclosure (rhHAPLN1 protein content of 0, 10, 20, 50 and 100 ng/ml) and pirfenidone 0.2 mg/mL (200 μg/mL), respectively, and cultured for 72 hours.
(3) Afterwards, each well was washed twice with PBS, then treated with 4% paraformaldehyde and fixed for 1 hour.
(4) After washing four times with 1×PBS, the wells were treated with 1×PBST (1×PBS+0.1% Triton X-100) containing 1% BSA and blocked for 2 hours.
(5) Primary antibody against αSMA (Abcam ab7817) was diluted 1:200 in 1×PBSTdp and treated and incubated overnight at 4° C.
(6) The next day, the blot was washed four times with 1×PBST.
(7) After treatment with secondary antibody (anti-mouse IgG Alexa Fluor™ 488 1:500 (Invitrogen, A28175)) and DAPI 1:2000 (Invitrogen, D1306), the cells were incubated at room temperature for 1 hour.
(8) Afterwards, 50 ul of Vectashield (Vectorlabs, H-1000) was added, covered with a coverslip, and photographed with a fluorescence microscope.

The mark [4] stands for this setting: IRP: pirfenidone 300 mg/kg B.W oral.
The mark [5] stands for this setting: IRA: rhHAPLN1 0.1 mg/kg B.W intraperitoneal.
The mark [6] stands for this setting: IRB: rhHAPLN1 0.02 mg/kg B.W intraperitoneal.

Regarding `Cc1ccc(=O)n(-c2ccccc2)c1` [pirfenidone, reference compound], in experiment [1] (setting [4]), the “collagen positive area compared to IRV, quantified with i-Solution (FIG. 14F)” value (“collagen positive area compared to IRV” below) is on record as “weaker” and the “expression of collagen compared to IRV, blinded test of stained photographs (FIG. 14D)” value (“expression of collagen compared to IRV” below) is reported as “weaker”. Besides, the “cell morphology after TGFβ1-induced sharp fibrotic form (FIG. 8B)” value in experiment [2] (then pirfenidone 0.2 mg/mL 24 h) is “round”. In experiment [3] (pirfenidone 0.2 mg/ml), the “αSMA stained fluorescent areas (FIG. 10B)” value was “fewer stained fluorescent areas appeared”.

B1: rhHAPLN1: recombinant human HAPLN1 protein of SEQ ID NO: 1 produced in CHO-K1 cells, stabilized in acetic acid buffer, sucrose, PS80, pH 5.0 (protein, listed as Homo sapiens)
chain: MKSLLLLVLISICWADHLSDNYTLDHDRAIHIQAENGPHLLVEAEQAKVFSHRGGNVTLPCKFYRDPTAFGSGIHKIRIKWTKLTSDYLKEVDVFVSMGYHKKTYGGYQGRVFLKGGSDSDASLVITDLTLEDYGRYKCEVIEGLEDDTVVVALDLQGVVFPYFPRLGRYNLNFHEAQQACLDQDAVIASFDQLYDAWRGGLDWCNAGWLSDGSVQYPITKPREPCGGQNTVPGVRNYGFWDKDKSRYDVFCFTSNFNGRFYYLIHPTKLTYDEAVQACLNDGAQIAKVGQIFAAWKILGYDRCDAGWLADGSVRYPISRPRRRCSPTEAAVRFVGFPDKKHKLYGVYCFRAYN
Consider B1, for which, in experiment [1] (setting [5]), the “collagen positive area compared to IRV” value is “weaker”; the “expression of collagen compared to IRV” value is “weaker”; the “expression of αSMA in kidney compared to IRV (FIG. 14C)” value is given as “lowered to pirfenidone-like levels”. Also, in experiment [1] (setting [6]), the “collagen positive area compared to IRV” value is “weaker”; the “expression of collagen compared to IRV” value is given as “weaker”; the “expression of αSMA in kidney compared to IRV (FIG. 14C)” value is recorded as “lowered to pirfenidone-like levels”. In addition, the “expression of αSMA in kidney compared to IRV (FIG. 14C)” value in experiment [1] (IRC: rhHAPLN1 0.004 mg/kg B.W intraperitoneal) is on record as “as high as the IRV”. The “cell morphology after TGFβ1-induced sharp fibrotic form (FIG. 8B)” value in experiment [2] (then rhHAPLN1 5-100 ng/ml 24 h) is “the shape of the cells changed to round”. Further, in experiment [3] (rhHAPLN1 50 ng/ml and 100 ng/ml), the “αSMA stained fluorescent areas compared to composition without rhHAPLN1 (FIG. 10B)” value was “fewer stained fluorescent areas appeared”.
